Experiments:
[1] = biological target: T1, HIS-tagged extracellular domain of canine PD-1; assay: ELISA on plate-coated HIS-tagged canine PD-1 ECD, two-fold dilutions of mAb, HRP goat anti-mouse IgG, TMB
T1 construct: also called canine PD-1 ECD-8HIS; PD-1ECD-HIS
T1 chain: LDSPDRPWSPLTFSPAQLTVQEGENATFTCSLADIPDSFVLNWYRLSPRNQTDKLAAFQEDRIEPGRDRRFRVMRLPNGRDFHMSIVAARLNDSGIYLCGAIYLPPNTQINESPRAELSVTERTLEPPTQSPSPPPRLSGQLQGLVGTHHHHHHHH
Description: Purified anti-canine PD-1 mAbs were tested for reactivity with the HIS-tagged ECD domain of canine PD-1 by ELISA as follows: HIS-tagged canine PD-1 ECD protein is diluted to 10 μg/mL in coating buffer (Carbonate/Bicarbonate pH 9.0) and dispensed at 100 μl/well in 96-well flat bottomed ELISA plates (NUNC). The plates are incubated at 4° C. overnight. The plates are then washed three times with phosphate buffered saline containing 0.05% Tween-20 (PBST). Next, 200 μl of blocking buffer (5% skim milk in PBST) is added to each well and the plates are incubated at 37° C. for 60 minutes. The plates are then washed three times with PBST. Next, 100 μl of test mAbs diluted in blocking buffer is added to the first wells of the appropriate columns. Test mAbs are then diluted two-fold to the appropriate plate position. Following incubation of the plates at 37° C. for 60 minutes, the plates are washed three times with PBST. Next, 100 μl per well of a 1:2,000 dilution of a horseradish peroxidase conjugated goat anti-mouse IgG (KPL) is added to the plates, which are then incubated at 37° C. for 60 minutes. Then the plates are washed three times with PBST, and 100 μl/well of 3,3′,5,5′ tetramethyl benzidine, (TMB) substrate (from KPL) is added to the plates. The color reaction is allowed to develop for 5-20 minutes at 37° C. prior to measuring absorbance at 650 nm.

[2] = biological target: T2, canine PD-1 expressed on CHO cells (canine); assay: ligand blockade CELISA: mAb diluted from 54.8 µg/mL on CHO cells expressing canine PD-1, then cPD-L1-Fc-biotin, streptavidin-HRP; the signal is bound PD-L1
T2 construct: CHO DXB11 cells transfected with plasmid p96793; also called cPD-1 CHO cells; CHO cell line expressing canine PD-1
T2 chain: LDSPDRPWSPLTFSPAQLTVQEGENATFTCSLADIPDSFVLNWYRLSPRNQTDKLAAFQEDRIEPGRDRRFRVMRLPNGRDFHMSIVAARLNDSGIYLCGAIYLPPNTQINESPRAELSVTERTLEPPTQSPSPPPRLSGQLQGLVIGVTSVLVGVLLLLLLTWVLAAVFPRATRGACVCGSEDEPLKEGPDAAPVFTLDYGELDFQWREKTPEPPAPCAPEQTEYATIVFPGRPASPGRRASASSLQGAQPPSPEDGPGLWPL
Description: (§1) A cell-based ELISA (CELISA) assay based on the CHO cell line expressing canine PD-1 was used for mouse mAbs which react with canine PD-1 (cPD-1). Ligand blockade was confirmed using this assay in conjunction with biotinylated cPD-L1/Fc protein. Briefly, seed cPD-1 CHO cells were placed in 96-well plates at 4×10⁴ cells per well and the cells were incubated at 37° C. for 18-24 hours till they are 95-100% confluent. The cell culture media was aspirated off, and the plates were washed 3× with PBS+0.05% Tween20 and 1×CHO media. Three-fold serial dilutions were made of anti-cPD1 mAbs in CHO media, starting at 30 μg/mL, and 50 μL/well of each antibody dilution were added down the plate. The incubation was performed at 37° C., 5% CO₂ with shaking for 30 min. 50 μL/well of cPD-L1-Fc-biotin (2 μg/ml in CHO media stock) was added and the incubation at 37° C., 5% CO₂ was continued with shaking for 45 min. The plates were washed 6 times with PBS+0.05% Tween 20. 100 ul/well of Streptavidin-HRP (1:2000) in CHO media was added followed by a incubation for 30-60 min at 37° C./5% CO₂. The plates were washed 5 times with PBS+0.05% Tween20 and then 100 μl/well of TMB color developing substrate was added. The color development was stopped by adding 50 μl/well of 1M phosphoric acid. The optical density (O.D.) at A450-A620 was measured using an ELISA plate reader.

[3] = biological target: T2, canine PD-1 expressed on CHO cells; assay: ligand blockade CELISA: mAb diluted from 23.2 µg/mL on CHO cells expressing canine PD-1, then cPD-L1-Fc-biotin, streptavidin-HRP; the signal is bound PD-L1
Description: as §1

[4] = biological target: T3, canine PD-1 antigen peptide GRDRRFRVM*RLPNGR (SEQ ID NO: 84) (canine); assay: ProImmune ProArray Ultra peptide microarray, fluorescent secondary antibody
T3 construct: The starred methionine has also been reported as a threonine
T3 peptide: GRDRRFRVMRLPNGR
Description: This library of overlapping peptides was designed to cover the full length canine PD-1 protein. The determination of peptide-antibody binding was performed by attachment of antibody samples to the ProArray Ultra® peptide microarray, followed by incubation with a fluorescent-labelled secondary antibody. All peptides are synthesized separately, and then bound to the ProArray Ultra® slide surface alongside ProImmune® murine IgG controls. This optimized process ensures that peptides are presented on the array in such a manner as to closely mimic the properties of the corresponding protein region, circumventing the inherent physiochemical variation of the free peptides themselves and making a compatible, combined peptide and protein array platform. […] After several washing steps, the ProArray Ultra® arrays were dried and scanned using a high-resolution fluorescence microarray scanning system. After scanning the fluorescent labelled ProArray Ultra® slides, the scanner recorded an image which was evaluated using image analysis software—enabling interpretation and quantification of the levels of fluorescent intensities associated with each fluorescent spot on the scanned microarray slide. The results of this experiment indicated some of the canine PD-1 peptides were recognized by some of the mAbs evaluated.

[5] = biological target: T2, canine PD-1 expressed on CHO cells; assay: CELISA on CHO cells expressing canine PD-1, mAb diluted from 30 ug/mL (x axis: log of dilution), HRP goat anti-mouse, TMB
[6] = biological target: T2, canine PD-1 expressed on CHO cells; assay: ligand blockade CELISA: mAb diluted from 30 ug/mL on CHO cells expressing canine PD-1, then cPD-L1-Fc-biotin, streptavidin-HRP; the signal is bound PD-L1
Description: as §1

B1: mAb 2G9 (mouse anti-canine PD-1 monoclonal antibody) (antibody, V domains shown)
VH: QAYLQQSGAELVRPGASVKISCKASGYTFTRYNMHWVKQTPRQGLEWIGTIYPGYGDTSYNQKFKGKATLTVDISSSTAYMQLTSLTSEDSAVYFCSREFADDYPIPPFDYWGQGTTLTVSS
VL: DVLMTQTPLSLPVSLGDQASISCRSSQNIVHSNGNTYLEWYLQKPGQSPKLLIYKVSNRFSGVPDRFSGSGSGTDFTLKISRVEAEDLGIYYCFQGSHVPYTFGGGTKLEIK
notes: Mouse hybridoma mAb
binding result [1]: binds | binding result [2]: binds

B2: 5G5 (antibody, V domains shown)
VH: EVQLQQSVAELVRPGASVKLSCTVSGFNIKNTYMHWVKQRPEQGLEWIGRIDPANVNTKYAPKFQGKATITTDTSSNTAYMQLSSLTSEDTAIYYCVLIFYDYDGDIDVWGTGTKVTVSS
VL: DIQMNQSPSSLSASLGDTITITCHASQNINVWLSWYQQKPGNIPKLLIYKASNLHTGVPSRFSGSGSGTDFTLTISSLQPEDIATYYCQQGQSYPLTFGAGTKLELK
notes: Mouse anti-canine PD-1 mAb; also called mAb 5G5; copies: 2 + 2
binding result [1]: binds

B3: Murine 2H9 (mouse anti-canine PD-1 monoclonal antibody) (antibody, V domains shown)
VH: EVQLQQSVAELVRPGASVKLSCTASGFNIKNTYMHWIKQRPEQGLEWIGRIAPANVDTKYAPKFQGKATITADTSSNTAYMQLSTLTSEDTAIYYCVLIYYDYDGDIDVWGTGTTVTVSS
VL: DIQMNQSPSSLSASLGDTITITCHASQNINVWLSWYQQRPGNIPKLLIYKASHLHTGVPSRFSGSGSGTGFTLTISSLQPEDIATYYCQQGQSWPLTFGAGTKLELK
notes: Mouse hybridoma mAb purified on Protein G; also called mAb 2H9
binding result [3]: binds | binding result [4]: binds | binding result [1]: binds

B4: mAb 1B5 (mouse anti-canine PD-1 monoclonal antibody) (antibody, V domains shown)
VH: QIQLVQSGPELKKPGETVKISCKASGYTFTTYGMSWVKQAPGKGLKWMGWINIYSGIPTYADDFKGRFAFSLETSASTAYLQIDNLKNEDTATYFCARFDGPDYWGQGTTLTVSP
VL: DIVMTQSPSSLAMSVGQKVTMSCKSSQSLLNSVNQKNYLAWYQQKPGQSPKVLVYFASTRVSGVPDRFIGSGSGTDFTLTITSVQAEDLTTYLCQQYFSTPLTFGAGTKLEIK
notes: Mouse mAb; also called IBS
binding result [5]: binds

B5: 4D12 (antibody, V domains shown)
VH: QIQLVQSGPELKKPGETVKISCKASGYTFTTYGMSWVKQAPGKGLKWMGWINIYSGMPTYADDFKGRFAFSLETSVSTAYLQINNLKNEDTATYFCARFDGPDYWGQGTTLTVSS
VL: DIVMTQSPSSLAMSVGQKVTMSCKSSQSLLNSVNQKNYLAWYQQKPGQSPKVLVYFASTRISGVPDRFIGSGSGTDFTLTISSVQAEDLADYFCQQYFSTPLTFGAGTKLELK
notes: Mouse anti-canine PD-1 mAb; also called mAb 4D12; copies: 2 + 2
binding result [1]: binds | binding result [6]: binds

B6: Murine 3B6 (mouse anti-canine PD-1 monoclonal antibody) (antibody, V domains shown)
VH: QIQLVQSGPELKKPGETVKISCKASGYTFTTYGMSWVKQAPGKGLKWMGWINIYSGIPTYADDFKGRFAFSLETSASTAYLQIDNLKNEDTATYFCARFDGPDYWGQGTTLTVSS
VL: DIVMTQSPSSLAVSVGRKVTMSCKSSQSLLNSVNQKNYLAWYQQKPGQSPKVLVYFASARVSGVPDRFIGSGSGTDFTLAISSVQAEDLTTYFCQQYFSTPLTFGAGTKLELK
notes: Mouse hybridoma mAb; also called mAb 3B6
binding result [1]: binds | binding result [5]: binds

From patent US20240084004A1 (INTERVET, published 2024)
